From patent publication CN103211774A, “一种注射用甲磺酸加贝酯组合物及其制备方法” (CHENGDU EASTON PHARMACEUTICAL Co Ltd, priority 2013, dated 2013)

System: guinea pig (豚鼠)
Test: Allergy (sensitisation) test (过敏性试验)
Type: in vivo
Details: 0.5 ml x 3 every other day; challenge i.v. 1 ml on day 14 and day 21; observed 30 minutes

B1: 阳性对照组: 5% ovalbumin positive control group (protein, UniProt P01012 2-386, looked up)
Ovalbumin: GSIGAASMEFCFDVFKELKVHHANENIFYCPIAIMSALAMVYLGAKDSTRTQINKVVRFDKLPGFGDSIEAQCGTSVNVHSSLRDILNQITKPNDVYSFSLASRLYAEERYPILPEYLQCVKELYRGGLEPINFQTAADQARELINSWVESQTNGIIRNVLQPSSVDSQTAMVLVNAIVFKGLWEKAFKDEDTQAMPFRVTEQESKPVQMMYQIGLFRVASMASEKMKILELPFASGTMSMLVLLPDEVSGLEQLESIINFEKLTEWTSSNVMEERKIKVYLPRMKMEEKYNLTSVLMAMGITDVFSSSANLSGISSAESLKISQAVHAAHAEINEAGREVVGSAEAGVDAASVSEEFRADHPFLFCIKHIATNAVLFFGRCVSP
  allergic reaction symptoms: 竖毛、发抖、干呕、喷嚏、咳嗽、紫癜、呼吸困难、抽搐、休克、死亡
